This is an account of results in patent US20100041743A1.

Test in all cases: cell-based or functional assay
The target in experiment [1] is anti-OVA mouse IgG1 (mAb, Sigma).
The target in experiment [2] is human IgG (Gammonativ, Octapharma).
The next experiment deals with rabbit IgG (Sigma).

On to “hybrid bFcRn α-chain / mouse β2m receptor (bovine FcRn expressed in BAC 128E04 transgenic mice) (from UniProt F6R592 35-358; P01887 21-119)”, for which the beta-phase half-life (hours) of injected mouse IgG in bFcRn Tg mice (line #14 homozygote), 10 µg/BWg in experiment [1] turned out to be 165 h. In experiment [2], this substance had a beta-phase half-life (hours) of injected human IgG in bFcRn Tg mice (line #14 homozygote), 10 µg/BWg of 172 h and a beta-phase half-life (hours) of injected human IgG in bFcRn Tg mice (line #14 homozygote), 20 µg/BWg of 181 h. For the same substance, in the experiment with rabbit IgG (Sigma), the half-life of injected rabbit IgG in bFcRn/mFcRn-/- mice (15 hours in FcRn-/- mice) stood at 67 h.
